Measured values from patent EP1143253A1.
Blank lines part the entries; values can stand above or below the substance they belong to.

Key:
[1] = target: human p97 (melanotransferrin), GPI-anchored membrane form (human) (UniProt P08582); experiment: FACS on SK-MEL-28 cells; L235 hybridoma supernatant, goat anti-mouse IgG-FITC
[2] = target: human p97 (melanotransferrin), GPI-anchored membrane form (human) (UniProt P08582); experiment: FACS, L235 on SK-MEL-28 cells after PI-PLC treatment, against untreated stained cells
[3] = target: human p97 (melanotransferrin), GPI-anchored membrane form (human) (UniProt P08582); experiment: FACS, L235 on p97aWTBc3 cells after PI-PLC treatment, against untreated stained cells
[4] = target: human p97 (melanotransferrin), GPI-anchored membrane form (human) (UniProt P08582); experiment: FACS, L235 on p97aWTBc7 cells after PI-PLC treatment, against untreated stained cells
[5] = target: human p97 (melanotransferrin), GPI-anchored membrane form (human) (UniProt P08582); experiment: FACS, L235 on SK-MEL-28 cells after Pronase treatment, against untreated stained cells
[6] = target: human p97 (melanotransferrin), GPI-anchored membrane form (human) (UniProt P08582); experiment: FACS on Sf9 cells infected with p97 B-1-1, pre-incubated with PI-PLC; L235 supernatant, goat anti-mouse IgG-FITC
[7] = target: human p97 (melanotransferrin), GPI-anchored membrane form (human) (UniProt P08582); experiment: FACS on Sf9 cells infected with p97 B-2-1, pre-incubated with PI-PLC; L235 supernatant, goat anti-mouse IgG-FITC
[8] = target: human p97 (melanotransferrin), GPI-anchored membrane form (human) (UniProt P08582); experiment: FACS on Sf9 cells infected with p97 recombinant baculovirus p97 B-1-1; L235 supernatant, goat anti-mouse IgG-FITC
[9] = target: human p97 (melanotransferrin), GPI-anchored membrane form (human) (UniProt P08582); experiment: FACS on Sf9 cells infected with p97 recombinant baculovirus p97 B-2-1; L235 supernatant, goat anti-mouse IgG-FITC
[10] = target: human p97 (melanotransferrin), GPI-anchored membrane form (human) (UniProt P08582); experiment: FACS on SK-MEL-28 cells pre-incubated with PI-PLC (60 min, 37 C), which removes p97; L235 supernatant, goat anti-mouse IgG-FITC
[11] = target: human transferrin receptor, membrane form (human) (UniProt P02786); experiment: FACS, OKT9 on SK-MEL-28 cells after PI-PLC treatment, against untreated stained cells
[12] = target: human transferrin receptor, membrane form (human) (UniProt P02786); experiment: FACS, OKT9 on SK-MEL-28 cells after Pronase treatment, against untreated stained cells
[13] = target: Thy-1 on EL-4 mouse lymphoma cells (mouse) (UniProt P01831); experiment: FACS, T24/37.1 on EL-4 cells after PI-PLC treatment, against untreated stained cells
[14] = target: Thy-1 on EL-4 mouse lymphoma cells (mouse) (UniProt P01831); experiment: FACS, T24/37.1 on EL-4 cells after Pronase treatment, against untreated stained cells

UniProt P08582, sequence (P08582 20-709): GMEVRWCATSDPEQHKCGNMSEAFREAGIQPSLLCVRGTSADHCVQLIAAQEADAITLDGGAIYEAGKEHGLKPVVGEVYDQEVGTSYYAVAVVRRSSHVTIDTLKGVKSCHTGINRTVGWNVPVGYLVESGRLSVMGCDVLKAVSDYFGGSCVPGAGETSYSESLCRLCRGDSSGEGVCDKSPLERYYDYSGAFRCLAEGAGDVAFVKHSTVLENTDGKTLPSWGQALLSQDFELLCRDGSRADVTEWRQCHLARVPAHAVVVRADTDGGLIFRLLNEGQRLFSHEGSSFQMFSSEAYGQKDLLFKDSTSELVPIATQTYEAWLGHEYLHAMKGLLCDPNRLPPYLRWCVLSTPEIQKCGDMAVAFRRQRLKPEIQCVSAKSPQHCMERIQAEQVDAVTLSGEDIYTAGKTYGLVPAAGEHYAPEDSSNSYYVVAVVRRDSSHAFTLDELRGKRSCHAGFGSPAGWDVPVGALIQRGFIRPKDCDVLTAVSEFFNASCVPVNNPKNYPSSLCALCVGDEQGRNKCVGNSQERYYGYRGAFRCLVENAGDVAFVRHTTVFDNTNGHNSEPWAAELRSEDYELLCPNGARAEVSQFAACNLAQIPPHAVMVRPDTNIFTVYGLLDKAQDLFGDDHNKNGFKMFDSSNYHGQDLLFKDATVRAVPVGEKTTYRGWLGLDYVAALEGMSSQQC
UniProt P02786, sequence (P02786 whole entry): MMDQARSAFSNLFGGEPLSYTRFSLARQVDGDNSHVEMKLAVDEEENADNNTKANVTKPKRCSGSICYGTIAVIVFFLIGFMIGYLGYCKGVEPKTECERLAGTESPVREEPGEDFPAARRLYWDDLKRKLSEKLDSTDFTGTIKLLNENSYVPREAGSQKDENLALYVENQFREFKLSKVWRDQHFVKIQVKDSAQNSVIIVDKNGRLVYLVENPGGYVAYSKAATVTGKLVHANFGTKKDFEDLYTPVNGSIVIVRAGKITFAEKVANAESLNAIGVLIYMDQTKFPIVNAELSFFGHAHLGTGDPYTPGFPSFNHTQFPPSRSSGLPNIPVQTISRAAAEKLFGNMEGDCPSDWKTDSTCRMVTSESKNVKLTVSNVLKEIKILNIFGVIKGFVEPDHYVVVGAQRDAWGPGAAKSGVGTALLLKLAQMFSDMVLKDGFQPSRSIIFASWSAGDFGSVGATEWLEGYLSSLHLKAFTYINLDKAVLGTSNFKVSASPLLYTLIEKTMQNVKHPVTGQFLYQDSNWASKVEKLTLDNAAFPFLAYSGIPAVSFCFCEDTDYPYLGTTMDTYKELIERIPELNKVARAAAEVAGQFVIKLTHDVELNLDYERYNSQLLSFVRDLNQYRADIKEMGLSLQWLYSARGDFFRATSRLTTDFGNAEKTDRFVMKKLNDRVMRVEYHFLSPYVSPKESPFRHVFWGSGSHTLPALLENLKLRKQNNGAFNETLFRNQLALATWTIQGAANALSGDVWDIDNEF
UniProt P01831, sequence (P01831 20-131): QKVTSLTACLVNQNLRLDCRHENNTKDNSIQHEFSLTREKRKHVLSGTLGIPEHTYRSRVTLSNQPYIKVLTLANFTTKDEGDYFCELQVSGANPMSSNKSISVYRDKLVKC

FLUORESCENCE - converted linear value (converted linear value) [1]: 128 | Fluorescene Intensity (% of Control) [2]: 10.8 % of Control | Fluorescene Intensity (% of Control) [3]: 6.8 % of Control | Fluorescene Intensity (% of Control) [4]: 7.5 % of Control | Fluorescene Intensity (% of Control) [5]: 82.6 % of Control | FLUORESCENCE - converted linear value (converted linear value) [6]: 5.74 | FLUORESCENCE - converted linear value (converted linear value) [7]: 6.85 | FLUORESCENCE - converted linear value (converted linear value) [8]: 112 | FLUORESCENCE - converted linear value (converted linear value) [9]: 97.4 | FLUORESCENCE - converted linear value (converted linear value) [10]: 4.52
Substance: L235 anti-human p97 monoclonal antibody

Fluorescene Intensity (% of Control) [11]: 120 % of Control | Fluorescene Intensity (% of Control) [12]: 15.9 % of Control
Substance: OKT9 anti-human transferrin receptor monoclonal antibody

Fluorescene Intensity (% of Control) [13]: 32.5 % of Control | Fluorescene Intensity (% of Control) [14]: 136 % of Control
Substance: T24/37.1 MAb (anti-Thy-1) (antibody)
